For the test, the target named is Mouse CT-1 fusion protein (mouse cardiotrophin-1 with a 34 amino acid N-terminal extension that encodes a portion of the herpes simplex virus glycoprotein D and a factor Xa cleavage site) (mouse) (UniProt Q60753). As to the kind of experiment: 125I-mouse CT-1 binding to soluble LIF receptor with added soluble gp130, Ni-NTA agarose.
Chain of Mouse CT-1 fusion protein (mouse cardiotrophin-1 with a 34 amino acid N-terminal extension that encodes a portion of the herpes simplex virus glycoprotein D and a factor Xa cleavage site) (mouse) (Q60753 whole entry, the tested form may be a part): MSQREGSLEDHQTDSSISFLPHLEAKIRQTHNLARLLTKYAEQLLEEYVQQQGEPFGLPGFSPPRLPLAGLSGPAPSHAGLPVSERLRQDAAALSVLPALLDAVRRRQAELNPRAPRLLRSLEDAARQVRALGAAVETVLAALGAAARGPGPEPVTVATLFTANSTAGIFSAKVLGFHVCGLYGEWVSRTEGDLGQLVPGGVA

“Soluble mouse gp130 (extracellular domain, amino acids 1-617, with a C-terminal tag of 6 histidine residues) (from UniProt Q00560 23-617) (receptor)”: the concentration of soluble gp130 required to increase the binding of CT-1 to the soluble LIF receptor worked out at 100 nM.

These data come from patent publication US20040006018A1.
